Results published in patent US20140087995A1 (published 2014).
Numbered stars: 1 amine (or outer) side, 2 acyl side, 3 side chain; on linkers, the order of the positions; unused ones are H or OH. Bridge positions count the residues as written; N and C are the ends. Side chains are listed from the residue outwards. Ends that are not written are not given here. * marks the point of attachment. C20 diacid = O=C(O)CCCCCCCCCCCCCCCCCCC(=O)*; γGlu = O=C(O)[C@H](CCC(=O)[*:2])N[*:1]; AEEA = NCCOCCOCC(=O)O

T1: human calcitonin receptor (human, UniProt P30988 25-474)
T1 construct: whole, on cells; Used as cell membranes; also called hCTR; hCT
T1 sequence (looked up): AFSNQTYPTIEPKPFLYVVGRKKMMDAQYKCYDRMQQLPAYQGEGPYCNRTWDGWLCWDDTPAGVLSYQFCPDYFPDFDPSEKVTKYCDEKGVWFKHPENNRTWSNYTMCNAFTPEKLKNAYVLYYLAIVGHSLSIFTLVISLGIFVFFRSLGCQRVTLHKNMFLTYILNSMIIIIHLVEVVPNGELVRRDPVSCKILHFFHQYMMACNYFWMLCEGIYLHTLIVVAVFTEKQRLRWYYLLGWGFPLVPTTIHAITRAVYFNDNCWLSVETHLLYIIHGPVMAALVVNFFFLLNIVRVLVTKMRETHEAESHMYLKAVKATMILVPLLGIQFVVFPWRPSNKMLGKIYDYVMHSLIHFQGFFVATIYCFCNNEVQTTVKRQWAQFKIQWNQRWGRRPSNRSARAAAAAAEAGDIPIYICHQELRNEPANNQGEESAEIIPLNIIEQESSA

T2: human amylin receptor (amylin 3(a) receptor: human calcitonin receptor with RAMP-3) (human, UniProt P30988 25-474; O60896 24-148)
T2 construct: whole, on cells; Used as cell membranes of the Amylin 3(a)/CRE-luc BHK cells; the species of RAMP-3 is only implied by the name human amylin receptor; also called hAmylin-R; hAmylinR
T2 sequence (looked up) 1: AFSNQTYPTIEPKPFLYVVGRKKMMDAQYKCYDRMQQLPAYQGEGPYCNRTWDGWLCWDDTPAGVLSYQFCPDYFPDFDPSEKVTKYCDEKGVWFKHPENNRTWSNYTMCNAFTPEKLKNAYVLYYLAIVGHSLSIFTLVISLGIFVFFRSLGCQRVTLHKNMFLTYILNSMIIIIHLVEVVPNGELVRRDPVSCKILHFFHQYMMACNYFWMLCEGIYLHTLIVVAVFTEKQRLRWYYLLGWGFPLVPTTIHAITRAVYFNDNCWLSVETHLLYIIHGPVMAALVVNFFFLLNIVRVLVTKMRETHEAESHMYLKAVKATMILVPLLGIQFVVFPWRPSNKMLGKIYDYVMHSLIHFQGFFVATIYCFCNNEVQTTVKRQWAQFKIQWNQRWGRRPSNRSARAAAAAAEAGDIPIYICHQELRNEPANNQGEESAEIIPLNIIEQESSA
T2 sequence (looked up) 2: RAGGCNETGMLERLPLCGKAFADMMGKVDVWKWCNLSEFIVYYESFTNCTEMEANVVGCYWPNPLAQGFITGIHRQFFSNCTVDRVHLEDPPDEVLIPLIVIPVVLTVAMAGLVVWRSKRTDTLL

T3: human calcitonin receptor (human, UniProt P30988 25-474)
T3 sequence (looked up): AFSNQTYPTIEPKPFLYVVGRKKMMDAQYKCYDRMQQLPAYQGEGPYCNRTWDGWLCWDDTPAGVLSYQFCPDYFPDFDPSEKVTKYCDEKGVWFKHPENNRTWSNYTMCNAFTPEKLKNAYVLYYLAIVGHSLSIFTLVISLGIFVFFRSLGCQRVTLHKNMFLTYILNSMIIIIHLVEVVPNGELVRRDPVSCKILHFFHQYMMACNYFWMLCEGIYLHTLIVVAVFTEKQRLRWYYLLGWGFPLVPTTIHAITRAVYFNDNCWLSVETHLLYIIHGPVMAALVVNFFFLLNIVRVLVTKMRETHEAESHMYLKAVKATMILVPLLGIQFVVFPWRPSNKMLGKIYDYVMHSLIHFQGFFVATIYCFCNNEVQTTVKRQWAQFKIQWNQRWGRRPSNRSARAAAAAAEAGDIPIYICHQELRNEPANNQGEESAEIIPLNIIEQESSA


Columns and labels:
[1] = target: T1, human calcitonin receptor; test: ratio of hCTR IC50 to hAmylin-R IC50 (reference: human amylin receptor)
Outline: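 Competition binding by SPA with cell membranes (35 ng/μL) and SPA beads in 50 mM Hepes pH 7.4 with 1 mM CaCl2, 5 mM MgCl2, 0.1% OA and 0.02% Tween20. Incubated 120 min at 25 °C with shaking, then counted.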

[2] = target: T2, human amylin receptor (amylin 3(a) …); test: SPA competition on BHK cell membranes, 125I-rat amylin as radioligand (Assay V)
Procedure: The binding assay was performed using scintillation proximity assay (SPA) beads (RPNQ0001) from PerkinElmer and cell membranes from the Amylin 3(a)/CRE-luc cells (as described in Assay (II)) were used. Membranes were prepared in the following way; the cells were rinsed with PBS and incubated with Versene for approximately 5 min before harvesting. The cells were flushed with PBS and the cell-suspension was centrifuged for 5 min at 1000 rpm. Cells were homogenized (ultrathurrax) in a buffer containing 20 mM Na-HEPES and 10 mM EDTA (pH 7.4) and centrifuged at 20.000 rpm for 15 min. The resulting pellet was resuspended, homogenized and centrifuged (20.000 rpm, 15 min) in a buffer containing 20 mM Na-HEPES and 0.1 mM EDTA (pH 7.4, buffer 2). The resulting pellet was resuspended in buffer 2 and protein concentration was measured (BCA protein Assay, Pierce). The homogenate was kept cold during the whole procedure. The membranes were kept at −80° C. until use. The assay was performed in a 384 well Optiplate (PerkinElmer) in a total volume of 40 ul. Membranes were mixed with SPA beads. Final concentration of membranes 35 ng/μL final and SPA beads was 0.05 mg/well. Test-compounds were dissolved in DMSO and further diluted in assay buffer (50 mM Hepes, pH 7.4, 1 mM CaCl2, 5 mM MgCl₂, 0.1% OA and 0.02% Tween20). […] The final mixture was incubated with shaking at 400 rpm for 120 min at 25° C. prior to centrifugation (1500 rpm, 10 min). Samples were analyzed on TopCounter™ (Packard). The IC₅₀ was calculated using (one site binding competition analysis) GraphPad Prism5 as a measure of receptor affinity.

[3] = target: T1, human calcitonin receptor; test: SPA competition on BHK cell membranes, 125I-calcitonin as radioligand (Assay VII)
Outline: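 BHK hCTR membranes 35 ng/μL + SPA beads 0.05 mg/well; buffer 50 mM Hepes pH 7.4, 1 mM CaCl2, 5 mM MgCl₂, 0.1% OA, 0.02% Tween20. 120 min, 25° C., shaking. Scintillation count; IC50 by one-site binding competition.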

[4] = target: T3, human calcitonin receptor; test: cell-based or functional assay

Ratio hCT/hAmylin binding [1] | IC50 [2] [nM] | IC50 [3] [nM] | Ratio hCT/hAmylin funct. [4] | hCTR funct. EC50 (pM) [4] [pM] | Binder
 |  |  | 3.8 | 1100 | K([γGlu-γGlu-C20 diacid])CNTATCATQRLAEFLRHSSPNFGAIPSSTNVGHNTY-NH2 (disulfide 2-7; N-terminus assumed; SMILES CC[C@H](C)[C@H](NC(=O)[C@H](C)NC(=O)CNC(=O)[C@H](Cc1ccccc1)NC(=O)[C@H](CC(N)=O)NC(=O)[C@@H]1CCCN1C(=O)[C@H](CO)NC(=O)[C@H](CO)NC(=O)[C@H](Cc1c[nH]cn1)NC(=O)[C@H](CCCNC(=N)N)NC(=O)[C@H](CC(C)C)NC(=O)[C@H](Cc1ccccc1)NC(=O)[C@H](CCC(=O)O)NC(=O)[C@H](C)NC(=O)[C@H](CC(C)C)NC(=O)[C@H](CCCNC(=N)N)NC(=O)[C@H](CCC(N)=O)NC(=O)[C@@H](NC(=O)[C@H](C)NC(=O)[C@@H]1CSSC[C@H](NC(=O)[C@@H](N)CCCCNC(=O)CC[C@H](NC(=O)CC[C@H](NC(=O)CCCCCCCCCCCCCCCCCCC(=O)O)C(=O)O)C(=O)O)C(=O)N[C@@H](CC(N)=O)C(=O)N[C@@H]([C@@H](C)O)C(=O)N[C@@H](C)C(=O)N[C@@H]([C@@H](C)O)C(=O)N1)[C@@H](C)O)C(=O)N1CCC[C@H]1C(=O)N[C@@H](CO)C(=O)N[C@@H](CO)C(=O)N[C@H](C(=O)N[C@@H](CC(N)=O)C(=O)N[C@H](C(=O)NCC(=O)N[C@@H](Cc1c[nH]cn1)C(=O)N[C@@H](CC(N)=O)C(=O)N[C@H](C(=O)N[C@@H](Cc1ccc(O)cc1)C(N)=O)[C@@H](C)O)C(C)C)[C@@H](C)O, Synthetic acylated analogue of human amylin; also called compound 87)
 |  |  | 5.2 | 354 | K([γGlu-C20 diacid])CNTATCATQRLAHFLRHSSPNFGAIPSSTNVGPNTY-NH2 (disulfide 2-7; N-terminus assumed; SMILES CC[C@H](C)[C@H](NC(=O)[C@H](C)NC(=O)CNC(=O)[C@H](Cc1ccccc1)NC(=O)[C@H](CC(N)=O)NC(=O)[C@@H]1CCCN1C(=O)[C@H](CO)NC(=O)[C@H](CO)NC(=O)[C@H](Cc1c[nH]cn1)NC(=O)[C@H](CCCNC(=N)N)NC(=O)[C@H](CC(C)C)NC(=O)[C@H](Cc1ccccc1)NC(=O)[C@H](Cc1c[nH]cn1)NC(=O)[C@H](C)NC(=O)[C@H](CC(C)C)NC(=O)[C@H](CCCNC(=N)N)NC(=O)[C@H](CCC(N)=O)NC(=O)[C@@H](NC(=O)[C@H](C)NC(=O)[C@@H]1CSSC[C@H](NC(=O)[C@@H](N)CCCCNC(=O)CC[C@H](NC(=O)CCCCCCCCCCCCCCCCCCC(=O)O)C(=O)O)C(=O)N[C@@H](CC(N)=O)C(=O)N[C@@H]([C@@H](C)O)C(=O)N[C@@H](C)C(=O)N[C@@H]([C@@H](C)O)C(=O)N1)[C@@H](C)O)C(=O)N1CCC[C@H]1C(=O)N[C@@H](CO)C(=O)N[C@@H](CO)C(=O)N[C@H](C(=O)N[C@@H](CC(N)=O)C(=O)N[C@H](C(=O)NCC(=O)N1CCC[C@H]1C(=O)N[C@@H](CC(N)=O)C(=O)N[C@H](C(=O)N[C@@H](Cc1ccc(O)cc1)C(N)=O)[C@@H](C)O)C(C)C)[C@@H](C)O, Synthetic acylated analogue of human amylin; also called compound 67)

Further lines, the binder ahead of its results:

Binder | Ratio hCT/hAmylin binding [1] | IC50 [2] [nM] | IC50 [3] [nM] | Ratio hCT/hAmylin funct. [4] | hCTR funct. EC50 (pM) [4] [pM]
K([AEEA-AEEA-γGlu-C20 diacid])CNTATCATQRLANFLRHSSPNFGAIPSSTNVGRNTY-NH2 (disulfide 2-7; N-terminus assumed; SMILES CC[C@H](C)[C@H](NC(=O)[C@H](C)NC(=O)CNC(=O)[C@H](Cc1ccccc1)NC(=O)[C@H](CC(N)=O)NC(=O)[C@@H]1CCCN1C(=O)[C@H](CO)NC(=O)[C@H](CO)NC(=O)[C@H](Cc1c[nH]cn1)NC(=O)[C@H](CCCNC(=N)N)NC(=O)[C@H](CC(C)C)NC(=O)[C@H](Cc1ccccc1)NC(=O)[C@H](CC(N)=O)NC(=O)[C@H](C)NC(=O)[C@H](CC(C)C)NC(=O)[C@H](CCCNC(=N)N)NC(=O)[C@H](CCC(N)=O)NC(=O)[C@@H](NC(=O)[C@H](C)NC(=O)[C@@H]1CSSC[C@H](NC(=O)[C@@H](N)CCCCNC(=O)COCCOCCNC(=O)COCCOCCNC(=O)CC[C@H](NC(=O)CCCCCCCCCCCCCCCCCCC(=O)O)C(=O)O)C(=O)N[C@@H](CC(N)=O)C(=O)N[C@@H]([C@@H](C)O)C(=O)N[C@@H](C)C(=O)N[C@@H]([C@@H](C)O)C(=O)N1)[C@@H](C)O)C(=O)N1CCC[C@H]1C(=O)N[C@@H](CO)C(=O)N[C@@H](CO)C(=O)N[C@H](C(=O)N[C@@H](CC(N)=O)C(=O)N[C@H](C(=O)NCC(=O)N[C@@H](CCCNC(=N)N)C(=O)N[C@@H](CC(N)=O)C(=O)N[C@H](C(=O)N[C@@H](Cc1ccc(O)cc1)C(N)=O)[C@@H](C)O)C(C)C)[C@@H](C)O, also called compound 95) | 63.4 | 0.967 | 61.3 |  | 
K([γGlu-C20 diacid])CNTATCATQRLARFLRHSSPNFGAIPSSTNVGSNTY-NH2 (disulfide 2-7; N-terminus assumed; SMILES CC[C@H](C)[C@H](NC(=O)[C@H](C)NC(=O)CNC(=O)[C@H](Cc1ccccc1)NC(=O)[C@H](CC(N)=O)NC(=O)[C@@H]1CCCN1C(=O)[C@H](CO)NC(=O)[C@H](CO)NC(=O)[C@H](Cc1c[nH]cn1)NC(=O)[C@H](CCCNC(=N)N)NC(=O)[C@H](CC(C)C)NC(=O)[C@H](Cc1ccccc1)NC(=O)[C@H](CCCNC(=N)N)NC(=O)[C@H](C)NC(=O)[C@H](CC(C)C)NC(=O)[C@H](CCCNC(=N)N)NC(=O)[C@H](CCC(N)=O)NC(=O)[C@@H](NC(=O)[C@H](C)NC(=O)[C@@H]1CSSC[C@H](NC(=O)[C@@H](N)CCCCNC(=O)CC[C@H](NC(=O)CCCCCCCCCCCCCCCCCCC(=O)O)C(=O)O)C(=O)N[C@@H](CC(N)=O)C(=O)N[C@@H]([C@@H](C)O)C(=O)N[C@@H](C)C(=O)N[C@@H]([C@@H](C)O)C(=O)N1)[C@@H](C)O)C(=O)N1CCC[C@H]1C(=O)N[C@@H](CO)C(=O)N[C@@H](CO)C(=O)N[C@H](C(=O)N[C@@H](CC(N)=O)C(=O)N[C@H](C(=O)NCC(=O)N[C@@H](CO)C(=O)N[C@@H](CC(N)=O)C(=O)N[C@H](C(=O)N[C@@H](Cc1ccc(O)cc1)C(N)=O)[C@@H](C)O)C(C)C)[C@@H](C)O, also called compound 83) [N^ε1-[(4S)-4-carboxy-4-(19-carboxynonadecanoylamino)butanoyl]-[Arg14,Arg17,Pro21,Pro27]-h-amylin] | 146 | 0.939 | 137 |  | 
